Measured values from patent JP2011016773A.

Target: HAMA血清タイプ1(Roche製、品番:1767275)
Assay: forward sandwich ELISA, inhibition of HAMA bridging of anti-hCEA antibodies, blocker solution at 1 ug/ml

Substance	HAMA回避率 [%]	HAMA回避効果 [%]
Heterophilic Blocking Reagent1 (SCANTIBODIES LABORATORY，INC.製、品番:3KC534−075)	68	
MAK33−IgG1(Roche製、品番:1200941) (antibody)	69	
マウスIgG(CHEMICON製、品番:PP54) (antibody)		61
